Test results reported in US8273357B2, “Antigen-carbohydrate conjugates” (Massachusetts Institute of Technology, priority 2004, dated 2012).
Entries after “also recorded” stand apart in the source; their conditions may differ.

Columns and labels:
OTII T cells = assay: In vitro restimulation with OVA peptide of T cells from immunized, rechallenged mice; type: in vivo, mouse; conditions: OVA peptide 100 μg mL^−1, 24 h
Experimental: FIGS. 8A and 8B are a series of dot plots (FIG. 8A) and a graph (FIG. 8B) showing that the oligosaccharide-mediated targeting of steady state dendritic cells leads to T cell tolerance. […] 2×10^7 OTII splenocytes were adoptively transferred into B6.Ly5.2/Cr recipients and then immunized by subcutaneous injection with PBS, OVA (200 ng), (OVA)-3-1 (200 ng), (OVA)-3-1 (200 ng)+mBSA (50 μg) or OVA peptide (100 μg) in Incomplete Freund's Adjuvant. At 8 days after these initial immunizations, mice received an antigenic rechallenge of OVA peptide (100 μg) in Complete Freund's Adjuvant. On day ten mice were sacrificed and cells were isolated from the draining lymph node, total T cells were purified by negative selection and the number of OTII T cells were counted by FACS as described for FIG. 6. […]
For T cell proliferation assays in adoptive transfer experiments, inguinal lymph nodes from each experimental group (3 mice/group) were pooled and dissociated with collagenase/EDTA as described above. […] Response to OVA peptide was determined by subtracting background proliferation (no peptide) from specific, peptide-induced proliferation. […] The proliferation index was calculated as the ratio of the response to OVA peptide in an experimental group to the response to OVA peptide in the PBS group.

IFN-γ = IFN-γ ELISA during in vitro peptide restimulation of T cells from immunized mice; type: in vivo, mouse; conditions: 24 h; lower limit of detection approximately 0.3 ng mL^−1
Experimental: FIGS. 8A and 8B are a series of dot plots (FIG. 8A) and a graph (FIG. 8B) showing that the oligosaccharide-mediated targeting of steady state dendritic cells leads to T cell tolerance. […] 2×10^7 OTII splenocytes were adoptively transferred into B6.Ly5.2/Cr recipients and then immunized by subcutaneous injection with PBS, OVA (200 ng), (OVA)-3-1 (200 ng), (OVA)-3-1 (200 ng)+mBSA (50 μg) or OVA peptide (100 μg) in Incomplete Freund's Adjuvant. At 8 days after these initial immunizations, mice received an antigenic rechallenge of OVA peptide (100 μg) in Complete Freund's Adjuvant. On day ten mice were sacrificed and cells were isolated from the draining lymph node, total T cells were purified by negative selection and the number of OTII T cells were counted by FACS as described for FIG. 6. […] Purified T cells from each experimental group were seeded at 3×10^5 cells/well with purified […] dendritic cells (9×10^4/well) and were incubated for twenty-four hours±OVA peptide (100 μg mL^−1) with [^3H]thymidine (1 μCi) added for the last ten hours. […]
75-150 μL aliquots of supernatant were sampled from antigen presentation assays at 24, 48, and 72 hours. […] 25 μL of each supernatant were diluted 1:1 with PBS/1% BSA and analyzed in triplicate for IFN-γ, IL-10, and IL-4 using DuoSet ELISA reagents from R&D Systems. […]

B cells and macrophages = assay: Antigen presentation with B cells and macrophages (non-dendritic cells) as antigen-presenting cells; type: cell-based, mouse; conditions: in place of purified dendritic cells
Experimental: FIGS. 4A, 4B, 4C and 4D are graphs showing that CD11c^+ dendritic cells are the main antigen presenting cells presenting 3-1-targeted antigen. […] 1.5×10^4 Splenic CD11c^+ dendritic cells purified from C57BL/6 mice and 3.0×10^4 purified OTII T cells were incubated with OVA (starting concentration 300 μg mL^−1) or (OVA)-3-1 (starting concentration 25 μg mL^−1) in graded doses for eight-four hours with [^3H]thymidine (1 μCi) added for the last twelve hours. […] Purified CD11c^+ dendritic cells and OTII T cells were incubated with (OVA)-3-1 (25 μg mL^−1)±each potential inhibitor (100 μg mL^−1). T cell proliferation was determined as for FIG. 4A. […] CD11c^+ dendritic cells and OTII T cells were incubated with OVA or (OVA)-3-1±lipopolysaccharide ([…]). Also included are all ‘non-dendritic cells’ (macrophages and B cells) obtained during the purification of the dendritic cells. T cell proliferation was determined as described in FIG. 4A. […] Supernatants from cells described in FIG. 4C were collected at forty-eight and seventy-two hours and measured for IFN-γ by ELISA; the values presented are from the seventy-two hour time point. All measurements here were performed in triplicate. […]

Molecule	ability of T cells from immunized mice to respond to dendritic cell-presented OVA peptide in vitro (OTII T cells)	IFN-γ produced during peptide stimulation in vitro (IFN-γ)	T cell responses with B cells and macrophages as antigen-presenting cells (B cells and macrophages)
(OVA)-3-1: ovalbumin modified via SMCC with nonasaccharide 3-1, average of three saccharides per OVA (conjugate) GSIGAASMEFCFDVFKELKVHHANENIFYCPIAIMSALAMVYLGAKDSTRTQINKVVRFDKLPGFGDSIEAQCGTSVNVHSSLRDILNQITKPNDVYSFSLASRLYAEERYPILPEYLQCVKELYRGGLEPINFQTAADQARELINSWVESQTNGIIRNVLQPSSVDSQTAMVLVNAIVFKGLWEKAFKDEDTQAMPFRVTEQESKPVQMMYQIGLFRVASMASEKMKILELPFASGTMSMLVLLPDEVSGLEQLESIINFEKLTEWTSSNVMEERKIKVYLPRMKMEEKYNLTSVLMAMGITDVFSSSANLSGISSAESLKISQAVHAAHAEINEAGREVVGSAEAGVDAASVSEEFRADHPFLFCIKHIATNAVLFFGRCVSP	significantly less responsive; also recorded: refractory to antigenic stimulation in vitro	no detectable IFN-γ	negligible
ovalbumin (protein, UniProt P01012 2-386, looked up, model antigen, unmodified) Ovalbumin: GSIGAASMEFCFDVFKELKVHHANENIFYCPIAIMSALAMVYLGAKDSTRTQINKVVRFDKLPGFGDSIEAQCGTSVNVHSSLRDILNQITKPNDVYSFSLASRLYAEERYPILPEYLQCVKELYRGGLEPINFQTAADQARELINSWVESQTNGIIRNVLQPSSVDSQTAMVLVNAIVFKGLWEKAFKDEDTQAMPFRVTEQESKPVQMMYQIGLFRVASMASEKMKILELPFASGTMSMLVLLPDEVSGLEQLESIINFEKLTEWTSSNVMEERKIKVYLPRMKMEEKYNLTSVLMAMGITDVFSSSANLSGISSAESLKISQAVHAAHAEINEAGREVVGSAEAGVDAASVSEEFRADHPFLFCIKHIATNAVLFFGRCVSP	strongly activated	produced IFN-γ	
